Data published in PMC7048804.

What was measured:
ERCC1 (human) = ERCC1 (human) (UniProt P07992)
[1] = biological target: XPF–ERCC1 complex (human) (UniProt Q92889)
[2] = biological target: XPF–ERCC1 mutant 323–326Δ^XPF (human) (UniProt Q92889)

Chain of UniProt P07992 (P07992 other isoform, or with tags, fused parts or gaps): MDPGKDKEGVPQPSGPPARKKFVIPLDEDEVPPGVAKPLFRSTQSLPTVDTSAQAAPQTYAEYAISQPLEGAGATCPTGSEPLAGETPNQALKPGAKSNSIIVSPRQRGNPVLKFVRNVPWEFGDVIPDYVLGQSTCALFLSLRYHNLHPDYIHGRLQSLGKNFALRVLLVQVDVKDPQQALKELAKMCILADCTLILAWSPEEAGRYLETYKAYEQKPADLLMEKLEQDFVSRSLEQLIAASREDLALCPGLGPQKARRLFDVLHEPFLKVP

catalytic efficiency kcat/Km of XPF(S312A)–ERCC1 on a stem–loop DNA substrate, real-time fluorescence incision assay (wild type: 1.73) (ERCC1 (human)) [M⁻¹ s⁻¹] | catalytic efficiency kcat/Km of XPF–ERCC1–SLX4^NTD on a stem–loop DNA substrate, real-time fluorescence incision assay (XPF–ERCC1 alone: 1.73) [1] [M⁻¹ s⁻¹] | catalytic efficiency kcat/Km of XPF(323–326 Δ)–ERCC1–SLX4^NTD on a stem–loop DNA substrate, real-time fluorescence incision assay [2] [M⁻¹ s⁻¹] | Binder
4.42e+07 | – | – | XPF S312A (enzyme) MESGQPARRIAMAPLLEYERQLVLELLDTDGLVVCARGLGADRLLYHFLQLHCHPACLVLVLNTQPAEEEYFINQLKIEGVEHLPRRVTNEITSNSRYEVYTQGGVIFATSRILVVDFLTDRIPSDLITGILVYRAHRIIESCQEAFILRLFRQKNKRGFIKAFTDNAVAFDTGFCHVERVMRNLFVRKLYLWPRFHVAVNSFLEQHKPEVVEIHVSMTPTMLAIQTAILDILNACLKELKCHNPSLEVEDLSLENAIGKPFDKTIRHYLDPLWHQLGAKTKSLVQDLKILRTLLQYLSQYDCVTFLNLLEALRATEKAFGQNSGWLFLDSSTSMFINARARVYHLPDAKMSKKEKISEKMEIKEGEETKKELVLESNPKWEALTEVLKEIEAENKESEALGGPGQVLICASDDRTCSQLRDYITLGAEAFLLRLYRKTFEKDSKAEEVWMKFRKEDSSKRIRKSHKRPKDPQNKERASTKERTLKKKKRKLTLTQMVGKPEELEEEGDVEEGYRREISSSPESCPEEIKHEEFDVNLSSDAAFGILKEPLTIIHPLLGCSDPYALTRVLHEVEPRYVVLYDAELTFVRQLEIYRASRPGKPLRVYFLIYGGSTEEQRYLTALRKEKEAFEKLIREKASMVVPEEREGRDETNLDLVRGTASADVSTDTRKAGGQEQNGTQQSIVVDMREFRSELPSLIHRRGIDIEPVTLEVGDYILTPEMCVERKSISDLIGSLNNGRLYSQCISMSRYYKRPVLLIEFDPSKPFSLTSRGALFQEISSNDISSKLTLLTLHFPRLRILWCPSPHATAELFEELKQSKPQPDAATALAITADSETLPESEKYNPGPQDFLLKMPGVNAKNCRSLMHHVKNIAELAALSQDELTSILGNAANAKQLYDFIHTSFAEVVSKGKGKK
– | 1.73e+08 | 5e+06 | SLX4^NTD (residues 1–758) (domain or fragment) MKLSVNEAQLGFYLGSLSHLSACPGIDPRSSEDQPESLKTGQMMDESDEDFKELCASFFQRVKKHGIKEVSGERKTQKAASNGTQIRSKLKRTKQTATKTKTLQGPAEKKPPSGSQAPRTKKQRVTKWQASEPAHSVNGEGGVLASAPDPPVLRETAQNTQTGNQQEPSPNLSREKTRENVPNSDSQPPPSCLTTAVPSPSKPRTAQLVLQRMQQFKRADPERLRHASEECSLEAAREENVPKDPQEEMMAGNVYGLGPPAPESDAAVALTLQQEFARVGASAHDDSLEEKGLFFCQICQKNLSAMNVTRREQHVNRCLDEAEKTLRPSVPQIPECPICGKPFLTLKSRTSHLKQCAVKMEVGPQLLLQAVRLQTAQPEGSSSPPMFSFSDHSRGLKRRGPTSKKEPRKRRKVDEAPSEDLLVAMALSRSEMEPGAAVPALRLESAFSERIRPEAENKSRKKKPPVSPPLLLVQDSETTGRQIEDRVALLLSEEVELSSTPPLPASRILKEGWERAGQCPPPPERKQSFLWEGSALTGAWAMEDFYTARLVPPLVPQRPAQGLMQEPVPPLVPPEHSELSERRSPALHGTPTAGCGSRGPSPSASQREHQALQDLVDLAREGLSASPWPGSGGLAGSEGTAGLDVVPGGLPLTGFVVPSQDKHPDRGGRTLLSLGLLVADFGAMVNNPHLSDVQFQTDSGEVLYAHKFVLYARCPLLIQYVNNEGFSAVEDGVLTQRVLLGDVSTEAARTFLHYLYTA
